Consider seven molecules from US11180789B2, “Method for bioconversion of mogroside extracts into siamenoside I” (National Taiwan University, priority 2019, dated 2021).

The target in data set [1] is T1, recombinant ScExg1 (rScExg1), Exg1p of Saccharomyces cerevisiae (Saccharomyces cerevisiae, UniProt P23776).
T1 sequence (P23776 41-448): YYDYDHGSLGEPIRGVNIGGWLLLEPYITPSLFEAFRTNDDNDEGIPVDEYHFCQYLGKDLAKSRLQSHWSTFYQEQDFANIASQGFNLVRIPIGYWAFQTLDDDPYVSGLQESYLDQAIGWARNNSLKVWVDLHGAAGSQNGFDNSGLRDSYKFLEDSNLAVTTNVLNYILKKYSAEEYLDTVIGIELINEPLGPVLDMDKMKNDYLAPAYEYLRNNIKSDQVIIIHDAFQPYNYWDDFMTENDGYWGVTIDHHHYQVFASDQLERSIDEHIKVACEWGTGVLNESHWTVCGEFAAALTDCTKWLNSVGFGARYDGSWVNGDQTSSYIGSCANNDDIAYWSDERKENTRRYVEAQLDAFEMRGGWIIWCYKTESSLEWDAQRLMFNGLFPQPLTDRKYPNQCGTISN
Put plainly: Enzyme kinetics of recombinant ScExg1 on oNPG and pNPG substrates (β-glucosidase activity). It is filed as biochemical. The settings on record: pNP/oNP release at 405 nm. The method, then:
The optimal conditions for β-glucosidase activity were determined. The optimum pH was obtained by monitoring enzyme activity at a range of pH levels (from pH 3 to pH 9) in the reaction buffer. Incubation was carried out at 60° C. for 30 min. To analyze enzyme stability, the same buffer system and pH range were used, however, the reactions were performed at 4° C. for 1 h. The optimum temperature was determined in 20 mM acetate buffer at pH 5 in a range of temperatures from 20° C. to 90° C. For temperature stability analysis, β-glucosidase was extracted and activity was monitored following 1 h incubation in 20 mM acetate buffer, pH 5. […] The f-glucosidase activity was determined by measuring the levels of p-nitrophenol (pNP) or o-nitrophenol (oNP) released from pNPG or oNPG after the glucose was hydrolyzed by glucosidase. The released pNP or oNP was detected at a wavelength of 405 nm and calibrated with standard curves. […]
(§1) To evaluate the preferred pH, preferred temperature and hydrolyzing capability of rDbExg1, we used pNPG substrates and compared the results with ScExg1. rDbExg1 retained half of its activity over a pH range of 3.0 to 7.0 and was stable at pH 5.0-7.0. […] The Michaelis constant (Km) and maximum velocity (Vmax) of rDbExg1 and rScExg1 were also compared and calculated (Table 3). […]

For data set [2] the following is noted: relative to 5% sucrose in water; cited from earlier work.
Data set [3] can be described thus: β-Glucosidase activity, pH and temperature optimum and stability of recombinant Exg1 proteins on pNPG. It is filed as biochemical. The method, then: (§2) The optimal conditions for β-glucosidase activity were determined. The optimum pH was obtained by monitoring enzyme activity at a range of pH levels (from pH 3 to pH 9) in the reaction buffer. Incubation was carried out at 60° C. for 30 min. To analyze enzyme stability, the same buffer system and pH range were used, however, the reactions were performed at 4° C. for 1 h. The optimum temperature was determined in 20 mM acetate buffer at pH 5 in a range of temperatures from 20° C. to 90° C. For temperature stability analysis, β-glucosidase was extracted and activity was monitored following 1 h incubation in 20 mM acetate buffer, pH 5. […] The enzyme and substrate mixture were incubated under optimum enzymatic reactions conditions of 60° C., pH 5. The f-glucosidase activity was determined by measuring the levels of p-nitrophenol (pNP) or o-nitrophenol (oNP) released from pNPG or oNPG after the glucose was hydrolyzed by glucosidase. The released pNP or oNP was detected at a wavelength of 405 nm and calibrated with standard curves. Mogroside conversion was stopped by the addition of one volume of pure methanol at specific time points. The converted products were then purified for HPLC-MS/MS analysis.

Substrate in data set [4]: O=[N+]([O-])c1ccc(O[C@@H]2O[C@H](CO)[C@@H](O)[C@H](O)[C@H]2O)cc1
Put plainly: Enzyme kinetics of recombinant ScExg1 on oNPG and pNPG substrates (β-glucosidase activity). It is filed as biochemical, Saccharomyces cerevisiae. The settings on record: other: rScExg1; pNP/oNP release at 405 nm. As to the method:
as §2
(§3) Because mogrosides are known to be hydrolyzed by Exg1p in S. cerevisiae (ScExg1), we hypothesized that an Exg1-like glucan-β-glucosidase in D. bruxellensis (DbExg1) might be responsible for the observed mogroside conversion. To test this hypothesis, DbExg1 was cloned with a galactose-induced promoter sequence and six-histidine tag (6×His) at the C-terminus of the gene. The plasmids were transformed and expressed in S. cerevisiae as previously described. […] The recombinant DbExg1 (termed rDbExg1) was purified by Ni^2+-affinity chromatography (data not shown).
(§4) To evaluate the preferred pH, preferred temperature and hydrolyzing capability of rDbExg1, we used pNPG substrates and compared the results with ScExg1. rDbExg1 retained half of its activity over a pH range of 3.0 to 7.0 and was stable at pH 5.0-7.0. The optimum pH was 5.0 in a sodium phosphate buffer system (FIG. 3C). […] The optimum temperature for rDbExg1 was 60° C. However, the enzyme only retained 40% of its activity after incubation at 60° C. for 30 min. […] (FIG. 3B). Both ScExg1 and rDbExg1 were stable at temperatures below 50° C. (FIGS. 3B and D). The Michaelis constant (Km) and maximum velocity (Vmax) of rDbExg1 and rScExg1 were also compared and calculated (Table 3).
(§5) Table 3: Kinetic parameters of recombinant DbExg1 and ScExg1 proteins on oNPG and pNPG substrates (4) Enzymatic Hydrolysis of Mogrosides

Substrate in data set [5]: O=[N+]([O-])c1ccccc1O[C@@H]1O[C@H](CO)[C@@H](O)[C@H](O)[C@H]1O
The data set is described as above. The settings on record: other: rScExg1; pNP/oNP release at 405 nm. It is filed as biochemical, Saccharomyces cerevisiae. As to the method: as §2, §3, §4, §5

Substrate in data set [6]: O=[N+]([O-])c1ccccc1O[C@@H]1O[C@H](CO)[C@@H](O)[C@H](O)[C@H]1O
Put plainly: purified protein, by the assay type. As to conditions: other: rDbExg1, substrate 10 mM, acetate buffer, pH 5, 60° C., pNP/oNP release at 405 nm.

Substrate in data set [7]: O=[N+]([O-])c1ccc(O[C@@H]2O[C@H](CO)[C@@H](O)[C@H](O)[C@H]2O)cc1
Put plainly: Enzyme kinetics of recombinant DbExg1 on oNPG and pNPG substrates (β-glucosidase activity). It is filed as biochemical, Dekkera bruxellensis. The settings on record: other: rDbExg1, substrate 10 mM, acetate buffer, pH 5, 60° C., pNP/oNP release at 405 nm.
Description: Exg1-like β-glucosidase from Dekkera bruxellensis (DbExg1) was cloned with the Gateway cloning system. Briefly, the coding region of DbExg1 was first amplified by PCR. The forward primer was
underline indicates gene coding region). Genomic DNA extracted from D. bruxellensis was used as the template. Yeast expression vectors (pYES-DEST52) were further introduced to generate galactose-inducible plasmids carrying the correct DbExg1 sequence. The yeast vectors were then amplified and transformed into Exg1-deleted S. cerevisiae (exg1Δ mutants) for the galactose-induced DbExg1 protein expression assay. DbExg1 gene was also integrated into (exg1Δ mutants) with a GPD promoter. For protein purification, the culture media was concentrated with a 30 kDa MWCO (molecular weight cutoff) ultrafiltration membrane (Vivaspin 20, GE Co., Taipei, Taiwan). The extracellular protein concentrates were purified by Ni^2+-affinity chromatography. Protein homogeneity in each fraction was assessed by SDS-PAGE and silver staining.
as §2, with “analysis. […]” for “analysis.”
as §1

For `O=[N+]([O-])c1ccccc1O[C@@H]1O[C@H](CO)[C@@H](O)[C@H](O)[C@H]1O` [o NPG, o-nitrophenol β-D-glucoside], in data set [1], the Kcat was 0.458 ± 0.012 s⁻¹ and the Vmax came out at 9.16 ± 0.247 µmol/min/mg.
Consider `C[C@H](CC[C@@H](O[C@@H]1O[C@H](CO)[C@@H](O)[C@H](O)[C@H]1O[C@@H]1O[C@H](CO)[C@@H](O)[C@H](O)[C@H]1O)C(C)(C)O)[C@H]1CC[C@@]2(C)[C@@H]3CC=C4[C@@H](CC[C@H](O[C@@H]5O[C@H](CO)[C@@H](O)[C@H](O)[C@H]5O)C4(C)C)[C@]3(C)[C@H](O)C[C@]12C` [MG IIIE, mogroside III E], for which, in data set [2], the “times sweeter than 5% sucrose” value is “less sweet”.
Consider `C[C@H](CC[C@@H](O[C@@H]1O[C@H](CO[C@@H]2O[C@H](CO)[C@@H](O)[C@H](O)[C@H]2O)[C@@H](O)[C@H](O)[C@H]1O[C@@H]1O[C@H](CO)[C@@H](O)[C@H](O)[C@H]1O)C(C)(C)O)[C@H]1CC[C@@]2(C)[C@@H]3CC=C4[C@@H](CC[C@H](O[C@@H]5O[C@H](CO[C@@H]6O[C@H](CO)[C@@H](O)[C@H](O)[C@H]6O)[C@@H](O)[C@H](O)[C@H]5O)C4(C)C)[C@]3(C)[C@H](O)C[C@]12C` [MG V, mogroside V], for which the “times sweeter than 5% sucrose” value in data set [2] is given as 392 times.
For the molecule `C[C@H](CC[C@@H](O[C@@H]1O[C@H](CO)[C@@H](O)[C@H](O)[C@H]1O[C@@H]1O[C@H](CO)[C@@H](O)[C@H](O)[C@H]1O)C(C)(C)O)[C@H]1CC[C@@]2(C)[C@H]3CC=C4[C@@H](CC[C@H](O[C@@H]5O[C@H](CO[C@@H]6O[C@H](CO)[C@@H](O)[C@H](O)[C@H]6O)[C@@H](O)[C@H](O)[C@H]5O)C4(C)C)[C@]3(C)[C@H](O)C[C@]12C` [MG IV, mogroside IV], the “times sweeter than 5% sucrose” value in data set [2] was 465 times.
With `C[C@H](CC[C@@H](O[C@@H]1O[C@H](CO[C@@H]2O[C@H](CO)[C@@H](O)[C@H](O)[C@H]2O)[C@@H](O)[C@H](O)[C@H]1O[C@@H]1O[C@H](CO)[C@@H](O)[C@H](O)[C@H]1O)C(C)(C)O)[C@H]1CC[C@@]2(C)[C@@H]3CC=C4[C@@H](CC[C@H](O[C@@H]5O[C@H](CO)[C@@H](O)[C@H](O)[C@H]5O)C4(C)C)[C@]3(C)[C@H](O)C[C@]12C` [SI, siamenoside I], the “times sweeter than 5% sucrose” value in data set [2] was 563 times.

B1: recombinant ScExg1 (rScExg1), Exg1p of Saccharomyces cerevisiae (Saccharomyces cerevisiae S288C) (protein)
chain: T1 sequence (P23776 41-448)
B1: the optimum temperature in data set [3] turned out to be 50 °C. In data set [4], the Km stood at 0.865 ± 0.003 mM, the Vmax was 11.7 µmol/min/mg, the kcat was found to be 0.587 ± 0.018 s⁻¹ and the kcat/Km was found to be 679 ± 5 M⁻¹ s⁻¹. Further, the Michaelis-Menten constant (Km) in data set [5] is 0.840 ± 0.042 mM.

B2: recombinant DbExg1 (rDbExg1), Exg1-like β-glucosidase from Dekkera bruxellensis, C-terminal 6xHis (Brettanomyces bruxellensis) (protein)
chain: APIILKKRDWDYTKDKIHGVNIGGWLVLEPYITPSLFETFGDDAPVDEYHYTQQLGKEEASKRLQEHWANWITEKDFEYIANLGLNMVRIPIGYWAFELQDNDPYVQGQQAYLDKALGWAEKNGLKVWIDLHGVPGSQNGFDNSGLRDQIDWQTGSGNVDFTLNVLKEMIEKYSDSDYSDTIIGIELLNEPLGSSLNMDELKVFYSSGYELVRDQDASVPVIIQDAFQSDYYWDDFLNTEQDTNIYGVVVDHHHYQVFSTGELQRDMDTRIQTACNWGKQEGGEYHWNVCGEFSAALTDCAKWLNGLGRGARYDSSYGGGAYVGSCDDLYTYDEDYWNNSDVIKQYRQYVEAQMDAFENGKMGGWVFWCWKTESAVEWDFQRLAGLNVIPQPLDDRLYPNQCSF
Regarding B2, in data set [6], the Michaelis-Menten constant (Km) was 0.781 ± 0.004 mM, the Vmax came to 10.4 µmol/min/mg, the kcat was determined as 0.518 s⁻¹ and the catalytic efficiency (kcat/Km) is 663 M⁻¹ s⁻¹. Further, in data set [7], the Michaelis constant (Km) worked out at 0.734 ± 0.002 mM, the Vmax stood at 9.27 µmol/min/mg, the kcat amounted to 0.464 ± 0.006 s⁻¹ and the kcat/Km came to 632 ± 7 M⁻¹ s⁻¹.
